Results as given in the supplement of paper PMC10567573.

B1: BEX1 (parent)
chain: EENMERIGEEVRQLMEKLREKQLS
B2: PBXIP1 (parent)
chain: EKQKQPRWREGTKDSHDPLPSWAE
B3: TMEM106C (parent)
chain: TVPEILVHNIVIFMRTSVKISYIG

Variants of: B1
Test: protein stability index of a GFP-peptide fusion (GPS, HEK-293T) (PSI 1-6); higher = more stable
Conditions: c terminus: a fixed tail appended
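Further: lentivirally expressed fusions sorted by FACS into six bins by GFP to DsRed ratio, PSI derived from sequencing read proportions per bin multiplied by bin number.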

Protein stability index: each site, then its substitutions
K17: D 4.76; G 4.86; I 3.76; W 4.17; Q 4.38
M4: Y 4.55; H 5.09; S 5.45; Q 3.58; E 5.3; L 4.16; G 5.48; T 5.03; I 4.28; K 5.35; R 4.75; P 5.96; D 4.81
L14: M 3.38; H 5.03; W 4.7; N 5.76; Q 5.03; C 4.33; R 5.59; I 4.06; V 4.97; Y 4.58
L23: D 5.21; W 4.68; Y 5.23; V 3.88; M 4.1; C 4.73; E 4.46; F 4.58; H 4.65; S 3.89; I 5.26; Q 4.97; A 4.63; T 5.19
V11: C 4.19; T 4.5; H 5.86; S 3.41; F 4.25; K 5.09; N 5.46; P 5.37; G 5.64; D 5.92; R 5.38; M 4.63; L 4.68
M15: Y 4.89; I 4.87; W 3.71; L 4.98; N 3.02; V 3.78; A 2.64; P 5.5; E 4.89; T 5.18; F 4.08
E9: N 4.02; P 4.98; F 3.7; V 4.07; I 4.39; Y 4.17; S 4.51; K 4.2; G 4.67; A 4.76; D 3.63
E20: W 2.19; F 2.75; L 4.29; S 4.57; R 4.46; H 3.74
S24: F 4.32; D 4.91; Y 3.91; W 3.99; G 4.78; Q 4.95; M 4.43; K 3.54; V 4.67; L 4.21; I 3.97; T 4.29; C 4.8
E2: K 3.64; Q 4.2; D 4.48; S 4.23; R 4.55; A 2.97; W 4.53; C 4.07; I 4; F 4.46; Y 3.72; P 4.34; H 4.37; M 4.05
E5: C 3.74; L 3.89; Q 4.01; V 3.3; R 4.33; P 4.77; W 3.31; N 4.96; F 4.54; A 4.28
E10: Y 4.13; F 2.91; G 4.24; D 4.76; K 3.89; P 4.75; H 4; R 2.79; A 3.09; W 3.67; M 3.51; T 3.96; S 4.31; L 4.63
K21: I 3.7; A 4.11; C 1.67; W 4.07; D 4.97; T 5.02; F 4.64; N 4.61; Y 3.04; Q 4.53; S 4.25; H 3.15; E 3.26
R19: S 4.21; N 5.13; F 3.95; H 5.32; A 4.72; L 2.82; K 4.74; E 5.31; T 4.76; Y 3.92; P 5.54
I7: M 4.83; G 4.97; Y 4.92; C 4.87; L 4.74; T 5.18; H 5.86; R 5.16; Q 5.33; K 4.23; S 5.17; F 4.78
G8: K 4.32; S 4.47; T 4.55; R 4.18; Q 4.36; L 3.33; A 3.25; H 4.09; C 4.73; E 4.04; W 3.44; Y 4.5; I 3.62
R12: F 4.12; K 4.78; P 5.1; S 4.85; L 3.77; V 5.27; N 4.1; H 5.45; C 4.43; M 4.62; I 4.22
R6: H 5.43; E 5.71; Y 4.57; F 3.72; P 5.03; A 4.94; N 3.84; W 4.69; C 4.25; K 4.8; V 4.81; G 5.28; I 3.92; T 4.85; Q 4.04
E16: P 2.69; C 3.87; H 4.49; N 4.45; R 3.89; W 2.85; V 3.31; K 4.32
N3: P 4.71; Q 3.94; T 3.84; F 4.74; G 5.04; W 4.32; D 3.5; R 3.79; A 3.99; C 3.89
Q22: N 5.16; T 3.59; S 3.92; G 4.18; D 4.73; M 1.08; A 2.82; P 3.67; W 2.28; C 2.46
E1: T 4.56; L 3.54; R 3.55; S 4; C 4.29; F 4.32; Y 4.14; I 4.77; D 2.37; Q 4.41; K 3.81; N 4.31
Q13: W 3.37; C 4.53; E 5.38; T 3.45; H 4.04; I 4.23; P 4.79; M 4.5; G 5.2
L18: E 5.35; H 5.04; P 5.86; K 5.26; M 4.59; T 5.53; C 3.82; I 4.48; W 4.84

Variants of: B2
Test: as above
Conditions: c terminus: a fixed tail appended

Protein stability index: each site, then its substitutions
E1: A 2.67; F 1.4; K 2.33; T 2.38; C 2.08; G 1.66; P 1.22; R 2.19; I 2.16; Q 2; H 2.64; L 2.19; M 1.7
K4: F 1.99; I 3.8; W 1; M 1.54; Q 1.92; E 1.59; G 1.89; N 2.02; C 2.63; T 1.92; V 1.21; D 1.72; H 2.66; A 1.72; S 1.85; P 1.56; R 2.07; Y 3
K2: S 2.15; W 1.43; Q 2.69; P 1.77; C 2.96; E 3.03; I 2.63; F 1.85; R 2.02; D 2.04; G 2.97; N 1.46; H 1.66; Y 2.81
Q3: G 2.03; H 1.78; T 1.89; N 2.58; P 1.63; V 1.34; C 2.21; W 1.41; L 1.59; R 2.14; S 1.55; Y 1.32
Q5: D 1.99; C 3.72; E 2.66; A 3.71

Variants of: B3
Test: as above
Conditions: c terminus: a fixed tail appended

Protein stability index of substitutions, site by site:
G24: W 2.75; S 3.61; R 3.06; V 2.95; T 2.06; Y 2.61
